# Data from publication PMC9234707, “Type II BMP and activin receptors BMPR2 and ACVR2A share a conserved mode of growth factor recognition” (The Journal of Biological Chemistry, 2022).
# Target: the molecule itself
# Assay: crystal structure; purified GF combined with 1.2 M excess of purified, deglycosylated receptor GBD; buffer exchanged to 10 mM Tris-HCl, 40 mM NaCl, pH 8.0; BMPR2-activin B crystals in 14% PEG 3K, 175 mM (NH4)2SO4, 100 mM BisTris pH 5.4; ACVR2A-activin A crystals in 17% PEG 3K, 100 NaCitrate pH 5.8
row,Protein,binding result
1,"activin B (ligand, human (by the printed accession), UniProt P09529 293-407, looked up, activin B (inhibin beta B chain), full mature moiety, residues 293 to 407; disulfide linked dimer; also called ActB; INHBB) GLECDGRTNLCCRQQFFIDFRLIGWNDWIIAPTGYYGNYCEGSCPAYLAGVPGSASSFHTAVVNQYRMRGLNPGTVNSCCIPTKLSTMSMLYFDDEYNIVKRDVPNMIVEECGCA",binds
2,"activin A (ligand, human (by the printed accession), UniProt P08476 311-426, looked up, activin A (inhibin beta A chain), full mature moiety, residues 311 to 426; disulfide linked dimer; it was removed with the prodomain; also called ActA; INHBA) GLECDGKVNICCKKQFFVSFKDIGWNDWIIAPSGYHANYCEGECPSHIAGTSGSSLSFHSTVINHYRMRGHSPFANLKSCCVPTKLRPMSMLYYDDGQNIIKKDIQNMIVEECGCS",binds
